The values below come from publication PMC6443781.

The target of experiment [1] is GFP-AP2B1 full length (FL) (UniProt P63010). Nature of the experiment: co-immunoprecipitation (anti-Myc IP, anti-AP2B1 blot, band quantification). As to conditions: 293FT cells transfected with GFP-AP2B1 and Myc-BUBR1; n = 3 independent experiments; parent: 1.
Experiment [2] addresses AP2M1 (residues 160–435) (human) (UniProt Q96CW1). Nature of the experiment: ITC; MicroCal ITC200, 20 °C, 25 mM HEPES pH 7.5, 50 mM NaCl; AP2M1 (160–435) 50 µM in the cell, IRS1 peptide (about 0.5 mM) injected. On the technique in general: ITC needs no label: the signal is the heat of the interaction.
UniProt Q96CW1, sequence (Q96CW1 160-435): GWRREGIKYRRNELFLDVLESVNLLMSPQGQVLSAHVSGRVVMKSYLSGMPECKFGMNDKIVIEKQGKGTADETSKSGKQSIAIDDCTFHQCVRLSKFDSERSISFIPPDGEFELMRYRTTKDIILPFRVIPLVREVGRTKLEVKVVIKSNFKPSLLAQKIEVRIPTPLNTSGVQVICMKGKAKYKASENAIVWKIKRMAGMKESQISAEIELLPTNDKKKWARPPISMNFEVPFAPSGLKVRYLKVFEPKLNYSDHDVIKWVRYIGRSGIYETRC
The target in experiment [3] is AP2M1 160-435 (UniProt Q96CW1). Nature of the experiment: peptide-bead pull-down, Coomassie. As to conditions: reference: unphosphorylated peptide YMPMS.
The target in experiment [4] is AP2M1 160-435 (UniProt Q96CW1). Nature of the experiment: isothermal titration calorimetry. As to conditions: reference: unphosphorylated peptide YMPMS; sites S616.

UniProt P63010, sequence (P63010 whole entry, the tested form may be a part): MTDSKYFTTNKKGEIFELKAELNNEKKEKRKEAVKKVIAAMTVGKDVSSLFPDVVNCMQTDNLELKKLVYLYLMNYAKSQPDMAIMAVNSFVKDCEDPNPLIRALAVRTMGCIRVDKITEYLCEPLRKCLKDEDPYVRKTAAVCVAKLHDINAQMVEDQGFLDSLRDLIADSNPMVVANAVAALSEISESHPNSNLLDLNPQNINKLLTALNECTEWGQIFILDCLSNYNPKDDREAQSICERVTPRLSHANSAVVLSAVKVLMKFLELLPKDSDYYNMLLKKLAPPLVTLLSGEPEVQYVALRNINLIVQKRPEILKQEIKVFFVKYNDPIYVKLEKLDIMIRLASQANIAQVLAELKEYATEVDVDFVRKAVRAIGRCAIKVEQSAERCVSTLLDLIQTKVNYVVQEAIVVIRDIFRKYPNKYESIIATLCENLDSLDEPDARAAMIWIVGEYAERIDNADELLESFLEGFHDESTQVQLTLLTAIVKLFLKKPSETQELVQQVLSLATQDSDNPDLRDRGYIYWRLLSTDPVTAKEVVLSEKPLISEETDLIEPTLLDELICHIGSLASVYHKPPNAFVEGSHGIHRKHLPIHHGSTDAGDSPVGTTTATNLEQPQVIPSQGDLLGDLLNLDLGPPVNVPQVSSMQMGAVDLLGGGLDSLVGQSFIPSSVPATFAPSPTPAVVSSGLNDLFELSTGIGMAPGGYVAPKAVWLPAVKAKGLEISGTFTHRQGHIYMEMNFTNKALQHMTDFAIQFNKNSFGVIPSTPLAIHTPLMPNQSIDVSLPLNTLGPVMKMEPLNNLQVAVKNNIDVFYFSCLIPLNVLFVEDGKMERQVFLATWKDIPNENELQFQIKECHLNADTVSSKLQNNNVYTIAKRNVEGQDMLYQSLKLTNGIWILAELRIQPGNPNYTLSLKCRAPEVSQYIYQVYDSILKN

Regarding “Myc-BUBR1 full length (WT) (from UniProt O60566) ΔD2”, the ratio to parent in experiment [1] was found to be 0.72.
unphosphorylated IRS1 peptide (YMPMS): in experiment [2], the Kd turned out to be 2030 nM.
Consider “Myc-BUBR1 full length (WT) (from UniProt O60566) ΔKEN1”, for which the ratio to parent in experiment [1] is 1.31.
In experiment [2], “phospho-serine IRS1 peptide (pS-IRS1; YMPMpS)” displayed a Kd of 280 nM.
“Myc-BUBR1 full length (WT) (from UniProt O60566) ΔPhe”: in experiment [1], the ratio to parent was 0.75.
With “IRS1 607-620 (from UniProt P35568) YMPMpS peptide”, in experiment [3] (sites S616), the “binding against the reference” value was “stronger”. In addition, the KD result in experiment [4] is “stronger; reference 2.03 µM”.
For the substance “IRS1 607-620 (from UniProt P35568) pYMPMS peptide”, the “binding against the reference” value in experiment [3] (sites Y612) is given as “lost”.
Turning to “Myc-BUBR1 full length (WT) (from UniProt O60566) ΔKEN2”, the ratio to parent in experiment [1] came to 0.94.
Consider “Myc-BUBR1 full length (WT) (from UniProt O60566) ΔPhe; ΔD2”, for which the ratio to parent in experiment [1] was found to be 0.67.

The Kd is a measure of binding affinity in units of concentration. A low value points to a tighter complex.
